Numbered stars: 1 amine (or outer) side, 2 acyl side, 3 side chain; on linkers, the order of the positions; unused ones are H or OH. Square brackets hold non-standard residues; d marks the D form. Side chains are listed from the residue outwards. Ends that are not written are not given here. * marks the point of attachment. C18 diacid = O=C(O)CCCCCCCCCCCCCCCCC(=O)*; γGlu = O=C(O)[C@H](CCC(=O)[*:2])N[*:1]; Ac4c = NC1(C(=O)O)CCC1; AEEA = NCCOCCOCC(=O)O; Aib = CC(C)(N)C(=O)O
Tests used:
human glucagon receptor [1] = molecular target: T1, human glucagon receptor (human, UniProt P47871 26-477); assay: cell-based or functional assay
human GLP-1 receptor [2] = molecular target: T2, human GLP-1 receptor (human, UniProt P43220 24-463); assay: cell-based or functional assay
human glucagon receptor [3] = molecular target: T1, human glucagon receptor; assay: displacement of 125I-glucagon, membranes with human glucagon receptor, SPA
Procedure: (§1) The receptor binding of each compound to the human glucagon receptor was measured in a displacement binding assay. […] Each derivative was added in a series of concentrations to isolated membranes containing the human glucagon receptor and displacement of the labelled ligand is monitored. The receptor binding was reported as the concentration at which half of the labelled ligand is displaced from the receptor, the IC₅₀ value.

human GLP-1 receptor [4] = molecular target: T2, human GLP-1 receptor; assay: displacement of 125I-GLP-1(7-36)NH2, membranes with human GLP-1R, SPA
Procedure: as §1, with “human GLP-1” for “human glucagon”, “ligand was” for “ligand is”

T1 sequence (P47871 26-477): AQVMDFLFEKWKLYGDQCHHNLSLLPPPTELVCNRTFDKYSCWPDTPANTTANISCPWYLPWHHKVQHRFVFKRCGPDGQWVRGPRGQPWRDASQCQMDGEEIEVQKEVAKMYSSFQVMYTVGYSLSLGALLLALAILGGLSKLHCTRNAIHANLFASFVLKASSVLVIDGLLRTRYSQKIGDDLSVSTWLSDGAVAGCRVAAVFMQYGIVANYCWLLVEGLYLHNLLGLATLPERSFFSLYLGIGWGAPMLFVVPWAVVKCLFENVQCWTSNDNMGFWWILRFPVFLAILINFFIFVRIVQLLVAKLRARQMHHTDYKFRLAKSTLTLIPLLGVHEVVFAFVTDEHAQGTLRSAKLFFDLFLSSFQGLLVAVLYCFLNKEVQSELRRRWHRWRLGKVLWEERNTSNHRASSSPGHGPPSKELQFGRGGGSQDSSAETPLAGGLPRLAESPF

## H[Aib]QGTFTSDLSKYLESRRAREFVQWLLKT-NH2 (not fully specified (residue 28))
Human glucagon receptor [1]
  EC50 GlucR, CRE luciferase reporter gene assay in BHK cells: 62.4 pM
Human GLP-1 receptor [2]
  EC50 GLP-1R, CRE luciferase reporter gene assay in BHK cells: 4.4 pM
Human glucagon receptor [3]
  IC50: 6700 pM
Human GLP-1 receptor [4]
  IC50: 400 pM

B1: N^ε16-[(4S)-4-carboxy-4-[[2-[2-[2-[[2-[2-[2-[[(4S)-4-carboxy-4-[[(4S)-4-carboxy-4-(17-carboxyheptadecanoylamino)butanoyl]amino]butanoyl]amino]ethoxy]ethoxy]acet … (peptide)
peptide: H[Aib]HGTFTSDLSKYLEK([γGlu-AEEA-AEEA-γGlu-γGlu-C18 diacid])RRAREFVAWLLST-NH2
modifications: N-terminus assumed
SMILES: CC(C)C[C@H](NC(=O)[C@H](Cc1c[nH]c2ccccc12)NC(=O)[C@H](C)NC(=O)[C@@H](NC(=O)[C@H](Cc1ccccc1)NC(=O)[C@H](CCC(=O)O)NC(=O)[C@H](CCCNC(=N)N)NC(=O)[C@H](C)NC(=O)[C@H](CCCNC(=N)N)NC(=O)[C@H](CCCNC(=N)N)NC(=O)[C@H](CCCCNC(=O)CC[C@H](NC(=O)COCCOCCNC(=O)COCCOCCNC(=O)CC[C@H](NC(=O)CC[C@H](NC(=O)CCCCCCCCCCCCCCCCC(=O)O)C(=O)O)C(=O)O)C(=O)O)NC(=O)[C@H](CCC(=O)O)NC(=O)[C@H](CC(C)C)NC(=O)[C@H](Cc1ccc(O)cc1)NC(=O)[C@H](CCCCN)NC(=O)[C@H](CO)NC(=O)[C@H](CC(C)C)NC(=O)[C@H](CC(=O)O)NC(=O)[C@H](CO)NC(=O)[C@@H](NC(=O)[C@H](Cc1ccccc1)NC(=O)[C@@H](NC(=O)CNC(=O)[C@H](Cc1c[nH]cn1)NC(=O)C(C)(C)NC(=O)[C@@H](N)Cc1c[nH]cn1)[C@@H](C)O)[C@@H](C)O)C(C)C)C(=O)N[C@@H](CC(C)C)C(=O)N[C@@H](CO)C(=O)N[C@H](C(N)=O)[C@@H](C)O
Human glucagon receptor [1]
  EC50 GlucR, CRE luciferase reporter gene assay in BHK cells: 6.8 pM
Human GLP-1 receptor [2]
  EC50 GLP-1R, CRE luciferase reporter gene assay in BHK cells: 32.7 pM
Human glucagon receptor [3]
  IC50: 1900 pM
Human GLP-1 receptor [4]
  IC50: 3900 pM

B2: N^ε16-[(4S)-4-carboxy-4-[[(4S)-4-carboxy-4-[[2-[2-[2-[[2-[2-[2-[[(4S)-4-carboxy-4-(17-carboxyheptadecanoylamino)butanoyl]amino]ethoxy]ethoxy]acetyl]amino]ethoxy … (peptide)
peptide: H[Aib]QGTFTSDLSKYLDK([γGlu-γGlu-AEEA-AEEA-γGlu-C18 diacid])KRAQEFVQWLLNT-NH2
modifications: N-terminus assumed
SMILES: CC(C)C[C@H](NC(=O)[C@H](Cc1ccc(O)cc1)NC(=O)[C@H](CCCCN)NC(=O)[C@H](CO)NC(=O)[C@H](CC(C)C)NC(=O)[C@H](CC(=O)O)NC(=O)[C@H](CO)NC(=O)[C@@H](NC(=O)[C@H](Cc1ccccc1)NC(=O)[C@@H](NC(=O)CNC(=O)[C@H](CCC(N)=O)NC(=O)C(C)(C)NC(=O)[C@@H](N)Cc1c[nH]cn1)[C@@H](C)O)[C@@H](C)O)C(=O)N[C@@H](CC(=O)O)C(=O)N[C@@H](CCCCNC(=O)CC[C@H](NC(=O)CC[C@H](NC(=O)COCCOCCNC(=O)COCCOCCNC(=O)CC[C@H](NC(=O)CCCCCCCCCCCCCCCCC(=O)O)C(=O)O)C(=O)O)C(=O)O)C(=O)N[C@@H](CCCCN)C(=O)N[C@@H](CCCNC(=N)N)C(=O)N[C@@H](C)C(=O)N[C@@H](CCC(N)=O)C(=O)N[C@@H](CCC(=O)O)C(=O)N[C@@H](Cc1ccccc1)C(=O)N[C@H](C(=O)N[C@@H](CCC(N)=O)C(=O)N[C@@H](Cc1c[nH]c2ccccc12)C(=O)N[C@@H](CC(C)C)C(=O)N[C@@H](CC(C)C)C(=O)N[C@@H](CC(N)=O)C(=O)N[C@H](C(N)=O)[C@@H](C)O)C(C)C
Human glucagon receptor [3]
  IC50: 1100 pM
Human GLP-1 receptor [4]
  IC50: 2400 pM

## H[Aib]QGTFTSDLSKYLESKRAREFVQWLLK([Gly-Ser-Glu-Gly-Ser-γGlu-γGlu-C18 diacid])T-NH2
Human GLP-1 receptor [2]
  EC50 GLP-1R, CRE luciferase reporter gene assay in BHK cells: 5.7 pM
Human glucagon receptor [3]
  IC50: 5100 pM
Human GLP-1 receptor [4]
  IC50: 200 pM

## H[Ac4c]QGTFTSDLSKYLESKRAREFVQWLLK([Gly-Ser-Glu-Gly-Ser-γGlu-γGlu-C18 diacid])T-NH2
Human glucagon receptor [1]
  EC50 GlucR, CRE luciferase reporter gene assay in BHK cells: 4 pM
Human glucagon receptor [3]
  IC50: 600 pM
Human GLP-1 receptor [4]
  IC50: 200 pM

B3: N^ε28-[(4S)-4-carboxy-4-[[(4S)-4-carboxy-4-[[2-[2-[2-[[2-[2-[2-[[(4S)-4-carboxy-4-(17-carboxyheptadecanoylamino)butanoyl]amino]ethoxy]ethoxy]acetyl]amino]ethoxy … (peptide)
peptide: H[Aib]HGTFTSDLSKYLESRRAREFVQWLLK([γGlu-γGlu-AEEA-AEEA-γGlu-C18 diacid])T-NH2
modifications: N-terminus assumed
SMILES: CC(C)C[C@H](NC(=O)[C@H](Cc1ccc(O)cc1)NC(=O)[C@H](CCCCN)NC(=O)[C@H](CO)NC(=O)[C@H](CC(C)C)NC(=O)[C@H](CC(=O)O)NC(=O)[C@H](CO)NC(=O)[C@@H](NC(=O)[C@H](Cc1ccccc1)NC(=O)[C@@H](NC(=O)CNC(=O)[C@H](Cc1c[nH]cn1)NC(=O)C(C)(C)NC(=O)[C@@H](N)Cc1c[nH]cn1)[C@@H](C)O)[C@@H](C)O)C(=O)N[C@@H](CCC(=O)O)C(=O)N[C@@H](CO)C(=O)N[C@@H](CCCNC(=N)N)C(=O)N[C@@H](CCCNC(=N)N)C(=O)N[C@@H](C)C(=O)N[C@@H](CCCNC(=N)N)C(=O)N[C@@H](CCC(=O)O)C(=O)N[C@@H](Cc1ccccc1)C(=O)N[C@H](C(=O)N[C@@H](CCC(N)=O)C(=O)N[C@@H](Cc1c[nH]c2ccccc12)C(=O)N[C@@H](CC(C)C)C(=O)N[C@@H](CC(C)C)C(=O)N[C@@H](CCCCNC(=O)CC[C@H](NC(=O)CC[C@H](NC(=O)COCCOCCNC(=O)COCCOCCNC(=O)CC[C@H](NC(=O)CCCCCCCCCCCCCCCCC(=O)O)C(=O)O)C(=O)O)C(=O)O)C(=O)N[C@H](C(N)=O)[C@@H](C)O)C(C)C
Human glucagon receptor [1]
  EC50 GlucR, CRE luciferase reporter gene assay in BHK cells: 3.6 pM
Human GLP-1 receptor [2]
  EC50 GLP-1R, CRE luciferase reporter gene assay in BHK cells: 14.6 pM
Human GLP-1 receptor [4]
  IC50: 600 pM

## H[Aib]QGTFTSDLSKYLDLRRAQDFVQWLLK([γGlu-γGlu-Ser-Glu-Ser-γGlu-γGlu-C18 diacid])T-NH2
Human glucagon receptor [1]
  EC50 GlucR, CRE luciferase reporter gene assay in BHK cells: 7 pM
Human GLP-1 receptor [2]
  EC50 GLP-1R, CRE luciferase reporter gene assay in BHK cells: 11 pM
Human GLP-1 receptor [4]
  IC50: 1900 pM

## H[Aib]QGTFTSDLSKYLESKRAREFVQWLLK([γGlu-γGlu-Ser-Glu-Ser-γGlu-γGlu-C18 diacid])T-NH2
Human GLP-1 receptor [2]
  EC50 GLP-1R, CRE luciferase reporter gene assay in BHK cells: 2.7 pM
Human glucagon receptor [3]
  IC50: 1700 pM
Human GLP-1 receptor [4]
  IC50: 200 pM

## H[Ac4c]QGTFTSDLSKYLESKRAREFVQWLLK([γGlu-γGlu-Ser-Glu-Ser-γGlu-γGlu-C18 diacid])T-NH2
Human glucagon receptor [1]
  EC50 GlucR, CRE luciferase reporter gene assay in BHK cells: 5 pM
Human glucagon receptor [3]
  IC50: 600 pM
Human GLP-1 receptor [4]
  IC50: 300 pM

## H[Aib]QGTFTSDLSKYLDKKAAREFVAWLLNT-NH2 (not fully specified)
Human glucagon receptor [3]
  IC50: 53000 pM
Human GLP-1 receptor [4]
  IC50: 200 pM

B4: N^ε28-[(4S)-4-carboxy-4-[[(4S)-4-carboxy-4-[[2-[2-[2-[[2-[2-[2-[[(4S)-4-carboxy-4-[[(4S)-4-carboxy-4-(17-carboxyheptadecanoylamino)butanoyl]amino]butanoyl]amino … (peptide)
peptide: H[Ac4c]QGTFTSDLSKYLESRRAREFVQWLLK([γGlu-γGlu-AEEA-AEEA-γGlu-γGlu-C18 diacid])T-NH2
modifications: N-terminus assumed
SMILES: CC(C)C[C@H](NC(=O)[C@H](Cc1ccc(O)cc1)NC(=O)[C@H](CCCCN)NC(=O)[C@H](CO)NC(=O)[C@H](CC(C)C)NC(=O)[C@H](CC(=O)O)NC(=O)[C@H](CO)NC(=O)[C@@H](NC(=O)[C@H](Cc1ccccc1)NC(=O)[C@@H](NC(=O)CNC(=O)[C@H](CCC(N)=O)NC(=O)C1(NC(=O)[C@@H](N)Cc2c[nH]cn2)CCC1)[C@@H](C)O)[C@@H](C)O)C(=O)N[C@@H](CCC(=O)O)C(=O)N[C@@H](CO)C(=O)N[C@@H](CCCNC(=N)N)C(=O)N[C@@H](CCCNC(=N)N)C(=O)N[C@@H](C)C(=O)N[C@@H](CCCNC(=N)N)C(=O)N[C@@H](CCC(=O)O)C(=O)N[C@@H](Cc1ccccc1)C(=O)N[C@H](C(=O)N[C@@H](CCC(N)=O)C(=O)N[C@@H](Cc1c[nH]c2ccccc12)C(=O)N[C@@H](CC(C)C)C(=O)N[C@@H](CC(C)C)C(=O)N[C@@H](CCCCNC(=O)CC[C@H](NC(=O)CC[C@H](NC(=O)COCCOCCNC(=O)COCCOCCNC(=O)CC[C@H](NC(=O)CC[C@H](NC(=O)CCCCCCCCCCCCCCCCC(=O)O)C(=O)O)C(=O)O)C(=O)O)C(=O)O)C(=O)N[C@H](C(N)=O)[C@@H](C)O)C(C)C
Human glucagon receptor [1]
  EC50 GlucR, CRE luciferase reporter gene assay in BHK cells: 11 pM
Human GLP-1 receptor [2]
  EC50 GLP-1R, CRE luciferase reporter gene assay in BHK cells: 6 pM
Human GLP-1 receptor [4]
  IC50: 300 pM

B5: N^ε28-[(4S)-4-carboxy-4-[[(4S)-4-carboxy-4-[[2-[2-[2-[[2-[2-[2-[[(4S)-4-carboxy-4-(17-carboxyheptadecanoylamino)butanoyl]amino]ethoxy]ethoxy]acetyl]amino]ethoxy … (peptide)
peptide: H[Ac4c]QGTFTSDLSKYLESRRAREFVQWLLK([γGlu-γGlu-AEEA-AEEA-γGlu-C18 diacid])T-NH2
modifications: N-terminus assumed
SMILES: CC(C)C[C@H](NC(=O)[C@H](Cc1ccc(O)cc1)NC(=O)[C@H](CCCCN)NC(=O)[C@H](CO)NC(=O)[C@H](CC(C)C)NC(=O)[C@H](CC(=O)O)NC(=O)[C@H](CO)NC(=O)[C@@H](NC(=O)[C@H](Cc1ccccc1)NC(=O)[C@@H](NC(=O)CNC(=O)[C@H](CCC(N)=O)NC(=O)C1(NC(=O)[C@@H](N)Cc2c[nH]cn2)CCC1)[C@@H](C)O)[C@@H](C)O)C(=O)N[C@@H](CCC(=O)O)C(=O)N[C@@H](CO)C(=O)N[C@@H](CCCNC(=N)N)C(=O)N[C@@H](CCCNC(=N)N)C(=O)N[C@@H](C)C(=O)N[C@@H](CCCNC(=N)N)C(=O)N[C@@H](CCC(=O)O)C(=O)N[C@@H](Cc1ccccc1)C(=O)N[C@H](C(=O)N[C@@H](CCC(N)=O)C(=O)N[C@@H](Cc1c[nH]c2ccccc12)C(=O)N[C@@H](CC(C)C)C(=O)N[C@@H](CC(C)C)C(=O)N[C@@H](CCCCNC(=O)CC[C@H](NC(=O)CC[C@H](NC(=O)COCCOCCNC(=O)COCCOCCNC(=O)CC[C@H](NC(=O)CCCCCCCCCCCCCCCCC(=O)O)C(=O)O)C(=O)O)C(=O)O)C(=O)N[C@H](C(N)=O)[C@@H](C)O)C(C)C
Human glucagon receptor [1]
  EC50 GlucR, CRE luciferase reporter gene assay in BHK cells: 10 pM
Human GLP-1 receptor [2]
  EC50 GLP-1R, CRE luciferase reporter gene assay in BHK cells: 3 pM
Human GLP-1 receptor [4]
  IC50: 300 pM

Reference: patent US20150374794A1 (Novo Nordisk, published 2015)
